Measurements published in article doi:10.1101/2022.06.15.496315.
Like-named read-outs stand apart in the source and are kept apart here.

Tests used:
[1] = biological target: ZIKV envelope protein (E) in infected Vero cells (Zika virus (MR766 strain)); experiment: proximity ligation
[2] = biological target: ZIKV envelope protein (E) in infected Vero cells (Zika virus (MR766 strain)); experiment: proximity ligation; remark: listed apart in the source

naturally occurring dynein (cytoplasmic dynein-1) of Vero cells, detected by its heavy chain (natural protein)
PLA dots per cell (dots per cell) [1]: < 1 | PLA dots per cell (dots per cell) [2]: > 6
